This is an account of results in the supplement of paper PMC9170038.

This series relates to MS2 coat protein. In words: apparent KD of MS2 coat protein; designed switch direction (-1 OFF switch, 1 ON switch): 1; higher = weaker reporter binding. Put shortly: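 Three titration conditions were used: no input, 200 uM small-molecule ligand, and an oligonucleotide input. In each, SNAP-549-labelled MS2 coat protein was raised from 0.7 or 1.5 nM, doubling, to 3 µM over designed RNA switches transcribed on Illumina chips by stalled E. coli RNA polymerase. Curve fits of normalised cluster fluorescence gave values whose per-design median over clusters is the apparent KD.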

The mark [1] stands for this setting: input ligand: microRNA oligo, concentration not stated.
[2] abbreviates: Eterna round: R95, input ligand: microRNA oligo, concentration not stated.
The mark [3] stands for this setting: Eterna round: R95, input ligand: FMN 200 uM.
[4] abbreviates: Eterna round: R95, input ligand: none.

As to “CACAUGAGGAUCACCCAUGUGAGGCGGCAAUAAAGCCGCGCACAGGAUAUAGCGCUAUGAAUGCGCUAGAAGGGUGAUUAGAAC [Reines] (Eterna round: R96, puzzle: Same State NG 3)”, the “apparent KD of MS2 coat protein” value (input ligand: FMN 200 uM) is 240 nM, the “apparent KD of MS2 coat protein” value under setting [1] was determined as 59.9 nM and the “apparent KD of MS2 coat protein” value (input ligand: none) stood at 36.5 nM.
For “CACGCCUCGGUAGGAUAUGAGGUGCCAUAGGCAACAGCCUAUGGACAUGAGGAUCACCCAUGUCCUCAGAAGGGCCAGGCGUGA [Rexeorar] (Eterna round: R96, puzzle: Same State NG 2)”, the “apparent KD of MS2 coat protein” value is, setting by setting: (input ligand: FMN 200 uM) 25.9 nM; under setting [1], 66.3 nM; (input ligand: none) 114 nM.
Taken in the same sequence, the figures for “CAGAGCCCAUGGGCCUGACAUGAGGAUCACCCAUGUGGCUUUGAGGAUAUAAGCGGAAACACCGCUUAGAAGGCGAAGCCUAAC [Atxerati] (Eterna round: R96, puzzle: Same State NG 3)” were 79.5 nM, 18.7 nM and 34.3 nM.
As for “CAGCGCUGUUGAGAGGAUAUGCGGUGAUGGACAUGAGGAUCACCCAUGUUAGCGACAGCAUUACGGUAGAAGGCUCCACAGCUGC [Soteed Omei mod 14] (puzzle: Same State 2)”, the “apparent KD of MS2 coat protein” value under setting [2] was 17.9 nM.
Regarding “CAUCGUUUGAUAGGAUAUCGCUAUACAUGAGGAUCACCCAUGUUUACCACGCUGGUUUUUCAUACCGAGAAGGAUUCUGAUGAG [salish99_SSNG02_r04_012] (Eterna round: R96, puzzle: Same State NG 2)”, the “apparent KD of MS2 coat protein” value runs as follows: (input ligand: FMN 200 uM) 55.3 nM; under setting [1], 38.3 nM; (input ligand: none) 47.6 nM.
Taken in the same sequence, the figures for “CCAACAUACAAUUUAAGAUCACAUGAGGAUCACCCAUGUAUGCAGGAUAUCAGCUCGAAUAGAGCUGAGAAGGGCAAUUUAAUU [SSNG3/1-A1] (Eterna round: R96, puzzle: Same State NG 3)” were 94.7 nM, 127 nM and 262 nM.
For the sequence “CCAUAGUACAAUUUAGAUCUACAUGAGGAUCACCCAUGUACUGAGGAUAUCAGCUCGUUUAGAGCUGAGAAGGCAGAAGUACUU [SSNG3/6-A3] (Eterna round: R96, puzzle: Same State NG 3)”, the “apparent KD of MS2 coat protein” value was found to be 34.2 nM (input ligand: FMN 200 uM), 64.8 nM under setting [1] and 102 nM (input ligand: none).
As for “CCGAUGAUAGGACAGGAUAUGACUGUCGUCACAUGAGGAUCACCCAUGUCCCGGCAAUGCCACCGUUAGAAGGGUCCUAUCUCGG [Orraais] (puzzle: Same State 2)”, the “apparent KD of MS2 coat protein” value under setting [2] was 11.9 nM.
On to “CCGAUUUAUGGAGGAUAUGGAGCCUUAUUGGCUCCAGAAGGUCAAUAAACAUGAGGAUCACCCAUGUCGGCGGUCAAUAGACCG [Eli NG1ss - 71] (Eterna round: R96, puzzle: Same State NG 1)”, for which the “apparent KD of MS2 coat protein” value amounted to 103 nM (input ligand: FMN 200 uM), 84.4 nM under setting [1] and 180 nM (input ligand: none).
In the case of “CCGCGCUGUCGAGAGGAUAUGCGGUGAUGGACAUGAGGAUCACCCAUGUUAGCGAUAGCAUUACUGUAGAAGGCUCUACGGCGGC [JL-ss2-3.09 ViennaUCT mod] (Eterna round: R96, puzzle: Same State 2)”, the “apparent KD of MS2 coat protein” value was 11.2 nM (input ligand: FMN 200 uM), 10.2 nM under setting [1] and 16.3 nM (input ligand: none).
Take “CCGCGCUGUCGAGAGGAUAUGCGGUGAUGGACAUGAGGAUCACCCAUGUUAGCGAUAGCAUUACUGUAGAAGGCUCUACGGCGGC [JL-ss2-3.09 ViennaUCT mod] (puzzle: Same State 2)”: the “apparent KD of MS2 coat protein” value reads like this: under setting [3], 12.2 nM; under setting [2], 10.4 nM; under setting [4], 11.9 nM.
For “CCGCUCCGUGGAGGAUAUGGGCCUGCCCGGGAUACCGAGCCUAACACAUGAGGAUCACCCAUGUCCCAGAAGGCCGCUGGAGCC [Inusaron] (Eterna round: R96, puzzle: Same State NG 2)”, the “apparent KD of MS2 coat protein” value came to 30.7 nM (input ligand: FMN 200 uM), 52.8 nM under setting [1] and 90.7 nM (input ligand: none).
Consider “CCGCUCCGUGGAGGAUAUGGGCCUGCCCGGGAUACCGGGCCUAACACAUGAGGAUCACCCAUGUCCCAGAAGGCCGCUGGAGCC [Rasoleis] (Eterna round: R96, puzzle: Same State NG 2)”, for which the “apparent KD of MS2 coat protein” value (input ligand: FMN 200 uM) came to 18.9 nM, the “apparent KD of MS2 coat protein” value under setting [1] stood at 85.1 nM and the “apparent KD of MS2 coat protein” value (input ligand: none) amounted to 58.2 nM.
Consider “CCGGUUUAUGGAGGAUAUGGAGCCUUAUUGGCUCCAGAAGGCUAAUAACAUGAGGAUCACCCAUGUCCGGCGGUCAAUAGACCG [Eli NG1ss - 57] (Eterna round: R96, puzzle: Same State NG 1)”, for which the “apparent KD of MS2 coat protein” value is 21.7 nM (input ligand: FMN 200 uM), 69.8 nM under setting [1] and 90.5 nM (input ligand: none).
For “CCGUAAUAUGGAGGAUAUGGAGCCUUAUUGGCUCCAGAAGGUCAAAACACAUGAGGAUCACCCAUGUCGGCGGUCAAUAGACCG [Eli NG1ss - 75] (Eterna round: R96, puzzle: Same State NG 1)”, in that order: 31.4 nM, 42.9 nM and 45.3 nM.
As for “CCGUUGAUAGGACAGGAUAUGACUGUCGUCACAUGAGGAUCACCCAUGUCCCGGCAAUGCCACCGUUAGAAGGGUCCCGUCUCGG [Beenraor] (puzzle: Same State 2)”, under setting [2], the “apparent KD of MS2 coat protein” value was 16.9 nM.
Take “CGACGCACGGCAGGAUAUCGAUUCCAAAGGAAUCGAGAAGGGCCUCAUGUCGUGGAAACGUGACAUGAGGAUCACCCAUGUUGC [Omei SS(NG)1 Cv19] (Eterna round: R96, puzzle: Same State NG 1)”: the “apparent KD of MS2 coat protein” value runs as follows: (input ligand: FMN 200 uM) 115 nM; under setting [1], 9.29 nM; (input ligand: none) 27.9 nM.
Consider “CGACGCUGUCGAGAGGAUAUGCGGUGAUGGACAUGAGGAUCACCCAUGUUAGCGAUAGCAUUACGGUAGAAGGCUCUACAGCUGU [Soteed Omei mod 5] (puzzle: Same State 2)”, for which the “apparent KD of MS2 coat protein” value was determined as 20.4 nM under setting [3], 202 nM under setting [2] and 118 nM under setting [4].
On to “CGAUCAUACUCAGGACGGAGAGUAGAGGAACAUGAGGAUCACCCAUGUAUGAGCUUUUUGCUCGUCAUGAACAGGAG [JR_SHM208a_Sub010] (puzzle: Sensor for hsa-mir-208a)”, for which the “apparent KD of MS2 coat protein” value is 67.2 nM under setting [3], 59.7 nM under setting [2] and 121 nM under setting [4].
For “CGAUGAUACUUAGGAAGAAGAGUUGAAGUACAUGAGGAUCACCCAUGUCAGAGCUUUUUGCUCGUCAUGAACAGGAA [JR_SHM208a_Sub006] (puzzle: Sensor for hsa-mir-208a)”, in that order: 47.9 nM, 27.7 nM and 52.9 nM.
Turning to “CGGGACAGACCCAACAUGAGGAUCACCCAUGUCCUCGCAGGUCAGGAUAUUAUUAGGAUCACCAGUGAGAAGGGACGGUGAACC (Eterna round: R96, puzzle: Same State NG 3)”, the “apparent KD of MS2 coat protein” value reads like this: (input ligand: FMN 200 uM) 470 nM; under setting [1], 281 nM; (input ligand: none) 373 nM.
With “CGUAGGUAGCUGGAGGAUAUUCGAGUGGUAACAUGAGGAUCACCCAUGUGGAUAGAGGAACAUGAGGAGAAGGCUAGCUGCCUGC [JL-ss2-3.20 JL mod] (puzzle: Same State 2)”, the “apparent KD of MS2 coat protein” value runs as follows: under setting [3], 11.3 nM; under setting [2], 26.6 nM; under setting [4], 30.6 nM.
For the sequence “CGUCCGGCCUGUGCUGGCCGGAAGCAUGUACAUGAGGAUCACCCAUGUUCAUGUGCAGGCUUUUUGCUCGUCUUGUG [salish99_mir208a_r3_006] (puzzle: Sensor for hsa-mir-208a)”, the “apparent KD of MS2 coat protein” value worked out at 41.3 nM under setting [3], 12.4 nM under setting [2] and 39.4 nM under setting [4].
As for “CGUCCGGCCUGUGCUGGCCGGAAGCAUGUACAUGAGGAUCACCCAUGUUCUUGUGCAGGCUUUUUGCUCGUCUUGUG [salish99_mir208a_010] (puzzle: Sensor for hsa-mir-208a)”, the “apparent KD of MS2 coat protein” value is, setting by setting: under setting [3], 24.9 nM; under setting [2], 14.7 nM; under setting [4], 22.2 nM.
On to “CGUCCGGCCUGUGCUGGCCGGUAGCUUGUACAUGAGGAUCACCCAUGUUCUUGUGCAGGCUUUUUGCUCGUCUUGUG [salish99_mir208a_016] (puzzle: Sensor for hsa-mir-208a)”, for which the “apparent KD of MS2 coat protein” value under setting [3] was found to be 365 nM, the “apparent KD of MS2 coat protein” value under setting [2] worked out at 23.9 nM and the “apparent KD of MS2 coat protein” value under setting [4] is 452 nM.
“CGUCCGGCCUGUGCUGGCCGGUGGCUUGUACAUGAGGAUCACCCAUGUUCUUGUGCUGGCUGUUUGCUCGUCUUGUG [salish99_mir208a_r3_021] (puzzle: Sensor for hsa-mir-208a)”: the “apparent KD of MS2 coat protein” value reads like this: under setting [3], 50.2 nM; under setting [2], 22.6 nM; under setting [4], 61.2 nM.
Regarding “CGUCGCUGUCGAGAGGAUAUGCGGUGGUGGACAUGAGGAUCACCCAUGUUAGCGAUAGCAUCACGGUAGAAGGCUCUUACGACUG [Soteed Omei mod 25] (puzzle: Same State 2)”, the “apparent KD of MS2 coat protein” value under setting [2] was found to be 18.1 nM.
In the case of “CGUUCAUACUCAGGACGGAGAGUAGAGGAACAUGAGGAUCACCCAUGUAUGAGCUUUUUGCUCGUCAUGAACAGGAG [JR_SHM208a_Sub011] (puzzle: Sensor for hsa-mir-208a)”, the “apparent KD of MS2 coat protein” value worked out at 103 nM under setting [3], 72.2 nM under setting [2] and 117 nM under setting [4].
Taken in the same sequence, the figures for “CUAUCUACAGGUGUCAGUGCUCGUCUUAUACAUGAGGAUCACCCAUGUUAUAGCCCGGUGCUUGCGCUGGGCUGAUU [JL ViennaUCT Tearor mod 4] (puzzle: Sensor for hsa-mir-208a)” were 54.8 nM, 14.2 nM and 66.9 nM.
